Patent US12723078

Columns and labels:
[1] = molecular target: recombinant LILRB1 (human) (UniProt Q8NHL6); assay: ELISA, control
[2] = molecular target: LILRB1 expressed on cell surface (human) (UniProt Q8NHL6); assay: flow cytometry on 2B4 cells expressing the LILR, PE
LILRA6 on reporter cells = LILRA6 on reporter cells (UniProt Q6PI73); assay: as above
LILRA5 on reporter cells = LILRA5 on reporter cells (UniProt A6NI73); assay: as above
LILRA2 on reporter cells = LILRA2 on reporter cells (UniProt Q8N149); assay: as above
Chain of LILRA2 on reporter cells (Q8N149 24-483): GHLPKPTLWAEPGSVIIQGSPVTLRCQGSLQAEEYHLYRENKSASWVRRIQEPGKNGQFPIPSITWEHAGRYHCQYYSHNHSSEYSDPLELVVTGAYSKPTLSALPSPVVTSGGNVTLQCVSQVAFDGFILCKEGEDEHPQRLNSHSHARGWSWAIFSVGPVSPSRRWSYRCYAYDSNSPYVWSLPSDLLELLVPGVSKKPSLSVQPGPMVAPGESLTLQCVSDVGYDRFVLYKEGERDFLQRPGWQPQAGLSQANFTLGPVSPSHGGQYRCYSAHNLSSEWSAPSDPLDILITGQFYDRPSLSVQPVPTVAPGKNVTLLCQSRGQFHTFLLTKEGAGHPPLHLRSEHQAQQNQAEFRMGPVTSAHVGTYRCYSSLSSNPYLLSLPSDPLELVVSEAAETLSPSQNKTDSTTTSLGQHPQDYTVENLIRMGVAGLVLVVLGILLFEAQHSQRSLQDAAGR

LILRA4 on reporter cells = LILRA4 on reporter cells (UniProt P59901); assay: as above
Chain of LILRA4 on reporter cells (P59901 24-499): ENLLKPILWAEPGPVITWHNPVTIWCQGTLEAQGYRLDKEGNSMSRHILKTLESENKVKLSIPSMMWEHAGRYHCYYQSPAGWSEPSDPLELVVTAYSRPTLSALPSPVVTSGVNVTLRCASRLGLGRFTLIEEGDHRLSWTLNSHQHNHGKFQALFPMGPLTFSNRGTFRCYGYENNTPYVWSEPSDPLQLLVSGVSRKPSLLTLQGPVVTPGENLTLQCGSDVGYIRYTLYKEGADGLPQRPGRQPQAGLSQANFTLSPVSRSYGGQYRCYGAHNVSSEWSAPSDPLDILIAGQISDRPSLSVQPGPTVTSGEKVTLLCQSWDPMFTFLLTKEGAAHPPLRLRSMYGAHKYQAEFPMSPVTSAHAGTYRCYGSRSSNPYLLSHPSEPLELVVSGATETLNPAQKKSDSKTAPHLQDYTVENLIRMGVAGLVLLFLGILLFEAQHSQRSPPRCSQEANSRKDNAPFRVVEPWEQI

LILRB3 on reporter cells = LILRB3 on reporter cells (UniProt O75022); assay: as above
LILRB2 on reporter cells = LILRB2 on reporter cells (UniProt Q8N423); assay: as above
Chain of LILRB2 on reporter cells (Q8N423 22-597): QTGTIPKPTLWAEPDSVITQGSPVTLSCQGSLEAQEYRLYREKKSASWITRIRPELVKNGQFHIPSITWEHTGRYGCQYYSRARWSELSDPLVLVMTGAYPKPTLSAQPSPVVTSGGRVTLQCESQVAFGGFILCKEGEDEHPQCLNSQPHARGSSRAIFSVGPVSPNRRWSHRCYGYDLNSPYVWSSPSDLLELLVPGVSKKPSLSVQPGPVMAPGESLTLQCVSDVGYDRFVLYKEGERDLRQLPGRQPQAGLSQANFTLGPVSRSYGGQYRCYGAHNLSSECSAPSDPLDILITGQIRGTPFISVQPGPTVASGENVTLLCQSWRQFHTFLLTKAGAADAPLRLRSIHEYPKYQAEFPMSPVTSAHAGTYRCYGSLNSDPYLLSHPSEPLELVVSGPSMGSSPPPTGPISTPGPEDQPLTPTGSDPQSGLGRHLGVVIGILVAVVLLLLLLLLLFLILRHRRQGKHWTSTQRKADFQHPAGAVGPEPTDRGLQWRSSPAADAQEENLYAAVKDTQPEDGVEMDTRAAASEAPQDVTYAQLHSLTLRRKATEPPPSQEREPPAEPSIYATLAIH

LILRB4 on reporter cells = LILRB4 on reporter cells (UniProt Q8NHJ6); assay: as above
LILRA1 on reporter cells = LILRA1 on reporter cells (UniProt O75019); assay: as above
Chain of LILRA1 on reporter cells (O75019 17-489 limits assumed): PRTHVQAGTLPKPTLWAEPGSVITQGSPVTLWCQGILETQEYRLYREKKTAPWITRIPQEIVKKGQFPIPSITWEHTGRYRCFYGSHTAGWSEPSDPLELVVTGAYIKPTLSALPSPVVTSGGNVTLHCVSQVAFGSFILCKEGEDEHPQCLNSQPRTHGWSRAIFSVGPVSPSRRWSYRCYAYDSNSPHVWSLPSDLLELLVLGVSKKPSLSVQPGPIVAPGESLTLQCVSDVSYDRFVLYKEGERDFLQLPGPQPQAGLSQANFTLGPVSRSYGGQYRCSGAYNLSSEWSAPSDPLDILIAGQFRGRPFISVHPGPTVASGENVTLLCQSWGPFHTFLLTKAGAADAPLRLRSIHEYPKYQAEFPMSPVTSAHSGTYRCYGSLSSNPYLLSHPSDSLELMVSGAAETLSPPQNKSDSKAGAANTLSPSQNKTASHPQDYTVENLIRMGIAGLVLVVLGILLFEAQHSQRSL

LILRB5 on reporter cells = LILRB5 on reporter cells (UniProt O75023); assay: as above
Chain of LILRB5 on reporter cells (O75023 24-590 limits assumed): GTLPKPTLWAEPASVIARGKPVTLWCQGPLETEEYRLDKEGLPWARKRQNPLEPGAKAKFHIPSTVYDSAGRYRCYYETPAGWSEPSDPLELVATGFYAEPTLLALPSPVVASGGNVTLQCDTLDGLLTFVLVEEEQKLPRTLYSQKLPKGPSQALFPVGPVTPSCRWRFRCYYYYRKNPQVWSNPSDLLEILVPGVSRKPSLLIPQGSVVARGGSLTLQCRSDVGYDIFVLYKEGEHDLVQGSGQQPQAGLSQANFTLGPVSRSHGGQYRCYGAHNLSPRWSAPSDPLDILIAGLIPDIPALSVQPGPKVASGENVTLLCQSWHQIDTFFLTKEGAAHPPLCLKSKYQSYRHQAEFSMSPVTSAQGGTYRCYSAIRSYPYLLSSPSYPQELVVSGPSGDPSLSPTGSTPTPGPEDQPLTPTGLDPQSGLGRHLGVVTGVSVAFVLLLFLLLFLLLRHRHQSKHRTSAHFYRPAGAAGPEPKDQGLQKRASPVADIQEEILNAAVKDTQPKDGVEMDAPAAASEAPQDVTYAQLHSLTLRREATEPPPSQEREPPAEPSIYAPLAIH

[3] = molecular target: recombinant LILRB1 (human) (UniProt Q8NHL6); assay: Octet RED96, LILRB1 at 100, 33.3, 11.1 and 3.7 nM

Chain of LILRA6 on reporter cells (Q6PI73 24-481): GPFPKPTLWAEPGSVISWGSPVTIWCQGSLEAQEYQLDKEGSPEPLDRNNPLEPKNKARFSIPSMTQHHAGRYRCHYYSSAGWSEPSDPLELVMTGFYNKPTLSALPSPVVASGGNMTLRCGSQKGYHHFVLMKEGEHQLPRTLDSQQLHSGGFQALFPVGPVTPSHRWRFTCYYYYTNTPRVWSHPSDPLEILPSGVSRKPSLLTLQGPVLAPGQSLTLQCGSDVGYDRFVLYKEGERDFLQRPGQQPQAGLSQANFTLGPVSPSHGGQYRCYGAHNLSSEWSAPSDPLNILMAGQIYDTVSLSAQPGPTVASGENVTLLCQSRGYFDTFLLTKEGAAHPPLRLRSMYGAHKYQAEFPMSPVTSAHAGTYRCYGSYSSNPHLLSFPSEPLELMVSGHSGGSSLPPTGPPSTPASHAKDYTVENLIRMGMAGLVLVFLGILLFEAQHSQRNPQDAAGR
Chain of LILRB1 expressed on cell surface (human) (Q8NHL6 24-650 limits assumed): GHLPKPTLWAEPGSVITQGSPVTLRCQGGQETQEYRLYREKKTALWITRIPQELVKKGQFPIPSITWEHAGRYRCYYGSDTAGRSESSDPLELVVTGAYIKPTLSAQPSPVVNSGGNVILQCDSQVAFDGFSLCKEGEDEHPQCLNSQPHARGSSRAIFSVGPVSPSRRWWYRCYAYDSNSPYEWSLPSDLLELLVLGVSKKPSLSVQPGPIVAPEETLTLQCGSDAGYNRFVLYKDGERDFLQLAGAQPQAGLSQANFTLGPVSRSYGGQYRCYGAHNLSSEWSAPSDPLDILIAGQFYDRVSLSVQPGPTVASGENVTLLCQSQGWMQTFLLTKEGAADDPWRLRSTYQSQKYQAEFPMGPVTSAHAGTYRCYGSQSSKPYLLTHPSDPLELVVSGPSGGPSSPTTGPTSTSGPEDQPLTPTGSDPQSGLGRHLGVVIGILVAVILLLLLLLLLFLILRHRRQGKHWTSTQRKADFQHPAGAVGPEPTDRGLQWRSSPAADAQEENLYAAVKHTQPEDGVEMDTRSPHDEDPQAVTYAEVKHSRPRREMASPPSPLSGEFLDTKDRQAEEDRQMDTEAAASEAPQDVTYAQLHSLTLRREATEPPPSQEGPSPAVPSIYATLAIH
Chain of recombinant LILRB1 (human) (Q8NHL6 24-461 limits assumed): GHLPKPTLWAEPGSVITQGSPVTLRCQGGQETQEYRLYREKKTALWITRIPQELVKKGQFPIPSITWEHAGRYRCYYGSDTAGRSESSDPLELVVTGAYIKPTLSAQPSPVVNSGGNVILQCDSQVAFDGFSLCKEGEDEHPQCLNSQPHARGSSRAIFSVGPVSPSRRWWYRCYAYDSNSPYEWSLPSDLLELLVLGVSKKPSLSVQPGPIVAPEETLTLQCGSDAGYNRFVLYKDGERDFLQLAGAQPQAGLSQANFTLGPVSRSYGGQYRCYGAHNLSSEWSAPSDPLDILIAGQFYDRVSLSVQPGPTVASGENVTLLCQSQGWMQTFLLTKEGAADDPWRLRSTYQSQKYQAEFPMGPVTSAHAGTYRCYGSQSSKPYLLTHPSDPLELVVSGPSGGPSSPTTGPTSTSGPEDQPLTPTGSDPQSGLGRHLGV
Chain of LILRA5 on reporter cells (A6NI73 42-299): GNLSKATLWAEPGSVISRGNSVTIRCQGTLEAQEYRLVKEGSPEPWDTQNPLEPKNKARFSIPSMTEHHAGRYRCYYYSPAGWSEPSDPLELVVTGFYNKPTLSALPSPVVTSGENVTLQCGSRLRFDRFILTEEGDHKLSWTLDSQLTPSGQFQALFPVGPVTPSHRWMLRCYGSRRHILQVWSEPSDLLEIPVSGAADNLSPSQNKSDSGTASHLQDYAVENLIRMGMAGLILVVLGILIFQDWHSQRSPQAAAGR

| OD450 [1] [OD450] | percent of cells in the gate [2] [%] | percent of cells in the gate (LILRA6 on reporter cells) [%] | percent of cells in the gate (LILRA5 on reporter cells) [%] | percent of cells in the gate (LILRA2 on reporter cells) [%] | percent of cells in the gate (LILRA4 on reporter cells) [%] | percent of cells in the gate (LILRB3 on reporter cells) [%] | percent of cells in the gate (LILRB2 on reporter cells) [%] | percent of cells in the gate (LILRB4 on reporter cells) [%] | percent of cells in the gate (LILRA1 on reporter cells) [%] | percent of cells in the gate (LILRB5 on reporter cells) [%] | Kd [3] [nM] | Substance |
| --- | --- | --- | --- | --- | --- | --- | --- | --- | --- | --- | --- | --- |
| 0.1 |  |  |  |  |  |  |  |  |  |  |  | Ctrl |
|  | 98.8 | 0.273 | 0.219 | 1.25 | 0.16 | 0.867 | 1.58 | 0.524 | 1.22 | 0.558 | 5.13 | GHI/75 (commercial anti-LILRB1 monoclonal antibody) |
|  | 98.5 | 0.144 | 0.343 | 85.3 | 0.301 | 0.196 | 1.52 | 0.0568 | 80.8 | 0.0127 | 8.26 | HP-F1 (commercial anti-LILRB1 monoclonal antibody) |
|  | 96.3 | 0.199 | 0.282 | 0.334 | 0.27 | 0.239 | 0.65 | 0.466 | 0.249 | 0.359 |  | R&D 292319 (antibody) |
